Reference: US10363320B2, “Conjugate comprising oxyntomodulin and an immunoglobulin fragment, and use thereof” (HANMI SCIENCE CO., LTD, priority 2011, dated 2019)

What was measured:
[1] = in vivo; cited from earlier work
human GLP-1 receptor = biological target: T1, human GLP-1 receptor (Homo sapiens, UniProt P43220); experiment: cAMP response in CHO cell line expressing human GLP-1 receptor (CHO/GLP-1R); assay type: cell-based; conditions: Table 3, Fc conjugates, GLP-1, glucagon, 37° C. for 1 hour
T1 construct: host or cells: CHO DG44
T1 sequence (P43220 24-463): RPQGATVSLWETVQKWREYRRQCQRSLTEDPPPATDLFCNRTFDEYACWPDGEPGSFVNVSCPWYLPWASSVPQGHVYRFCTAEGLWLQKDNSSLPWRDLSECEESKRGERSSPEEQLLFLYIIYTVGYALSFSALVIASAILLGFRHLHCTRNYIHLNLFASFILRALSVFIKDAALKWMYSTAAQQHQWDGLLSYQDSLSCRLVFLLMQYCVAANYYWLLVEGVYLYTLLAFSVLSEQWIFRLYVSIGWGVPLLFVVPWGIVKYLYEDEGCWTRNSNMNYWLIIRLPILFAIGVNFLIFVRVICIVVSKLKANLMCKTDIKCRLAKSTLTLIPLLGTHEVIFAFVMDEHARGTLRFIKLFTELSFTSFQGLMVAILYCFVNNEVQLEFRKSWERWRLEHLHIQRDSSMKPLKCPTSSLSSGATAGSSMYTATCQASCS
Method: The PCR product was cloned into the known animal cell expression vector x0GC/dhfr to prepare a recombinant vector x0GC/GLP1R.
CHO DG44 cell line cultured in DMEM/F12 (10% FBS) medium was transfected with the recombinant vector x0GC/GLP1R using LIPOFECTAMINE® (INVITROGEN®, USA), and cultured in a selection medium containing 1 mg/mL G418 and 10 nM methotraxate.
(§1) The cultured cells were washed with KRB buffer and suspended in 40 ml of KRB buffer containing 1 mM IBMX, and left at room temperature for 5 minutes. […] Then, 20 mL of cell lysis buffer was added for cell lysis, and the cell lysates were applied to a cAMP assay kit (Molecular Device, USA) to measure cAMP concentrations. EC50 values were calculated therefrom, and compared to each other.
(§2) Each of the cultured transformants was washed with KRB buffer and suspended in 40 ml of KRB buffer containing 1 mM IBMX, and left at room temperature for 5 minutes. […] Then, 20 ml of cell lysis buffer was added for cell lysis, and the cell lysates were applied to a cAMP assay kit (Molecular Device, USA) to measure cAMP concentrations using a Victor (PERKIN ELMER®, USA). EC50 values were calculated therefrom, and compared to each other (Table 3).

human glucagon receptor = biological target: T2, human glucagon receptor (Homo sapiens, UniProt P47871); experiment: cAMP response in CHO cell line expressing human glucagon receptor (CHO/GCGR); assay type: cell-based; conditions: Table 3, Fc conjugates, GLP-1, glucagon, 37° C. for 1 hour
T2 construct: host or cells: CHO DG44
T2 sequence (P47871 26-477): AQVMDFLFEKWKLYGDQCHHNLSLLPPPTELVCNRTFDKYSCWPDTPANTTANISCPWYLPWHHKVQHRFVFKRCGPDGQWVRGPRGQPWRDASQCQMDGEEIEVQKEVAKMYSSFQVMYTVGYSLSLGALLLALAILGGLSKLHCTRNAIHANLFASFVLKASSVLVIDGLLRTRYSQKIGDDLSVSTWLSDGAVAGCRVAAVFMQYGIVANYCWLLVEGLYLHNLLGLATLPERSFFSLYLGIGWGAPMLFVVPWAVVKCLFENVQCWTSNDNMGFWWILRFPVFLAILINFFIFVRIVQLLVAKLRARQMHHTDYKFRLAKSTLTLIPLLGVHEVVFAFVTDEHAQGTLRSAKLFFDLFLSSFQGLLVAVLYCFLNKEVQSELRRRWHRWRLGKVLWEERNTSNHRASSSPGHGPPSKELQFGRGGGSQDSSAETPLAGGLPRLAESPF
Method: The PCR product was cloned into the known animal cell expression vector x0GC/dhfr to prepare a recombinant vector x0GC/GCGR.
CHO DG44 cell line cultured in DMEM/F12 (10% FBS) medium was transfected with the recombinant vector x0GC/GCGR using LIPOFECTAMINE®, and cultured in a selection medium containing 1 mg/mL G418 and 10 nM methotraxate.
as §1, §2

[2] = taken for 1 year; cited from earlier work

In the case of CC(C)CC(N(C)C)C1(c2ccc(Cl)cc2)CCC1 (stereo not drawn) [Sibutramine], the side-effect [1] is given as “cardiovascular side-effects”.

Work on “SEQ ID NO. 33 - Fc conjugates: conjugate of oxyntomodulin derivative (SEQ ID NO. 33), cysteine 30, MAL-10K-ALD PEG and immunoglobulin Fc (HXQGTFTSDYAKYLDEKRAKEFVQWLMNTC; conjugate chemistry not built; chains of the parent or of the whole protein)” yielded an EC50 (human GLP-1 receptor) of 0.0117 µM and an EC50 (human glucagon receptor) of 0.0859 µM.

In the case of Cc1c(C(=O)NN2CCCCC2)nn(-c2ccc(Cl)cc2Cl)c1-c1ccc(Cl)cc1 [Rimonabant], the side-effect [1] is given as “side-effect of central nerve disorder”.

In the case of “SEQ ID NO. 23 - Fc conjugates: conjugate of oxyntomodulin derivative (SEQ ID NO. 23), cysteine 24, MAL-10K-ALD PEG and immunoglobulin Fc (HXQGTFTSDYSKYLDEKRAKEFVCWLMNT; not fully specified; conjugate chemistry not built; chains of the parent or of the whole protein)”, the EC50 (human GLP-1 receptor) is reported as 0.0054 µM and the EC50 (human glucagon receptor) is reported as 0.0158 µM.

In the case of CCCCCCCCCCC[C@@H](C[C@@H]1OC(=O)[C@H]1CCCCCC)OC(=O)[C@H](CC(C)C)NC=O [Orlistat], the weight loss [2] is given as 4 kg.

With “SEQ ID NO. 34 - Fc conjugates: conjugate of oxyntomodulin derivative (SEQ ID NO. 34), cysteine 30, MAL-10K-ALD PEG and immunoglobulin Fc (YXQGTFTSDYSKYLDEKRAKEFVQWLMNTC; conjugate chemistry not built; chains of the parent or of the whole protein)” the EC50 (human GLP-1 receptor) was 0.168 µM and the EC50 (human glucagon receptor) was 0.008 µM.
